In experiment [1] the target is T1, human C-C motif chemokine receptor 8 (CCR8) (human, UniProt P51685 1-355). Kind of experiment: cell-based or functional assay.
For experiment [2], the target named is T1, human C-C motif chemokine receptor 8 …. Kind of experiment: cell-based or functional assay. The source holds these as a separate data set.
Experiment [3] shares this target. Kind of experiment: cell-based or functional assay. The source holds these as a separate data set.
For experiment [4] the target is unchanged. Kind of experiment: cell-based or functional assay. This is another data set of the same source.
Experiment [5] shares this target. Put plainly: FACS (MFI-PE) on HEK293 hCCR8 cells.
Experiment [6] has the same target. Kind of experiment: FACS (MFI PE) on HEK293 hCCR8 cells.
The target in another experiment is T2, human CCR4 (human, UniProt P51679 1-360).
T2 construct: whole, on cells; also called hCCR4
T2 sequence (looked up): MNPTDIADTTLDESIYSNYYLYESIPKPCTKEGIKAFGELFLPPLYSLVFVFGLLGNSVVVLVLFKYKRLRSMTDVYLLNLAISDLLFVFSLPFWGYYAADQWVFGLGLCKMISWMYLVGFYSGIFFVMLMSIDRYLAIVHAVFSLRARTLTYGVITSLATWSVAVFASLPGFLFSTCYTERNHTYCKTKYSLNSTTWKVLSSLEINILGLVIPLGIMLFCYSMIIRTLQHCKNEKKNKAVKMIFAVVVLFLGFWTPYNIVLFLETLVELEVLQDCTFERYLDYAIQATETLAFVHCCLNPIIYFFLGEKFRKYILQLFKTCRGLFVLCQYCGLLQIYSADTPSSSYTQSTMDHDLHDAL
Put plainly: FACS, CHO-K1 hCCR4 cells. On the procedure: (§1) Briefly, HEK293 hCCR8 cell line, CHO-K1 cyno CCR8 cell line or CHO-K1 hCCR4 cell line was first incubated with 5-fold serially diluted and 8 doses with the above 10 chimeric Abs and hlgG1 control starting from 100 nM at 4° C. for 30 mins. After washing by FACS buffer, PE Goat anti-Human IgG Fc Secondary Antibody (eBioscience™, Invitrogen) was added to each well and incubated at 4° C. for 30 mins. Samples were washed twice with FACS buffer. The mean florescence intensity (MFI) of PE was evaluated by MACSQuant Analyzer 16.

Experiment [7] addresses T1, human C-C motif chemokine receptor 8 …. Put plainly: cell-based or functional assay. The source holds these as a separate data set.
For experiment [8] the target is unchanged. Kind of experiment: cell-based or functional assay. The source holds these as a separate data set.
Experiment [9] has the same target. Put plainly: cell-based or functional assay. The source holds these as a separate data set.
Experiment [10] has the same target. Put plainly: cell-based or functional assay. The source holds these as a separate data set.
For experiment [11] the target is unchanged. Kind of experiment: FACS (MFI-PE) on HEK293 hCCR8 cells. Here is the method:
as §1
This is another data set of the same source.

For experiment [12] the target is unchanged. Kind of experiment: FACS (MFI-PE) on CHO-K1 hCCR8 cells.
Experiment [13] deals with T3, cyno CCR8 (cynomolgus, UniProt G7NYJ2 1-355).
T3 construct: whole, on cells; also called cynomolgus CCR8 protein
Kind of experiment: FACS (MFI-PE) on CHO-K1 cyno CCR8 cells. On the procedure:
as §1

Experiment [14] has as its target T3, cyno CCR8. Put plainly: FACS (MFI-PE) on CHO-K1 cyno CCR8 cells. The source holds these as a separate data set.

We go through six molecules from patent publication US20250368744A1 (CONCEPT TO MEDICINE BIOTECH, published 2025).

Substitutions are numbered along the chain they refer to. Where two headings read alike, the source gives them in different places.

As a reminder, the EC50 is the midpoint of the concentration-response curve. A higher EC50 goes with a less potent agent.

T1 sequence (P51685 whole entry): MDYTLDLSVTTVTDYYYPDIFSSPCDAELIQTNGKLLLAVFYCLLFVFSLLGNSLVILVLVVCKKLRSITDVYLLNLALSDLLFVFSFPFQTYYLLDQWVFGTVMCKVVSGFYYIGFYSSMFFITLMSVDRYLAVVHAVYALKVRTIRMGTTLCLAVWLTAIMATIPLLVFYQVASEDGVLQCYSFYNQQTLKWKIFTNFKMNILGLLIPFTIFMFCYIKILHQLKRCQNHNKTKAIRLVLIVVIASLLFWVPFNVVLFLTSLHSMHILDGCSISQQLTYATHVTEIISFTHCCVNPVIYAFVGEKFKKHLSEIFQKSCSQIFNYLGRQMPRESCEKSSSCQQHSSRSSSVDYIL
T3 sequence (G7NYJ2 entry or part of it): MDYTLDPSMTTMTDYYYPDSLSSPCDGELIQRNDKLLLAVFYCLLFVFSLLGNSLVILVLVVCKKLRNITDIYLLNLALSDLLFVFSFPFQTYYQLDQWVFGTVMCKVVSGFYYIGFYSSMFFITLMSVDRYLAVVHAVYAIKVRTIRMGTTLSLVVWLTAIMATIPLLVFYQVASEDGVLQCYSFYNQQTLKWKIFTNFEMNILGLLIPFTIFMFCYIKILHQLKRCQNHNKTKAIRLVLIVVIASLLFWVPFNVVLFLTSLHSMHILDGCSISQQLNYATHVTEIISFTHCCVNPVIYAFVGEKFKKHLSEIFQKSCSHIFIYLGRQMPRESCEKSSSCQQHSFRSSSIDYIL

B1: Hu200C9B9-7 NG-NA (antibody, V domains shown)
VH: EVQLVESGGGLVQPGGSLRLSCAASGFSFNTYVMNWVRQAPGKGLEWVARIRTKSNNYATFYVDSVKDRFTISRDDSKNSLYLQMNSLKTEDTAVYYCVSGTITRLGAGLDYWGQGTLVTVSS
VL: DIVMTQSPLSLPVTPGEPASISCRSSKSLLHSNANTYLYWYLQKPGQSPQLLIYRMSNLASGVPDRFSGSGSGTAFTLKISRVEAEDVGVYYCMQHLEYPFTFGGGTKLEIK
notes: humanized, PTM site removed
Regarding B1, in experiment [1], the “IC50 (read off the curve), hCCL1-induced beta-arrestin recruitment (RLU), CHO-K1 hCCR8 cells” value is approximately 2000 pM. In addition, the “IC50, hCCL1-induced Ca2+ flux (stimulation %), Chem-1 hCCR8 cells” value in experiment [2] amounted to 360 pM. The “IC50, hCCL1-induced beta-arrestin recruitment (% stimulation), CHO-K1 hCCR8 cells” value in experiment [3] was determined as 1580 pM. Moreover, the “IC50, hCCL1-induced Ca2+ flux (% stimulation), Chem-1 hCCR8 cells” value in experiment [4] turned out to be 4330 pM. For the same molecule, the concentration giving a half-maximal response (EC50) in experiment [5] stood at 69 pM; in experiment [6], 150 pM.

B2: 195H8D10 (antibody, V domains shown)
VH: EVQLVGSGGGLVQPKGSLKLSCAASGFNFNTYVMNWVRQAPGKGLEWVARIRTKSNNYATYYADSVKDRFTISRDDSESKLYLQMNNLKTEDTAMYYCVSGTITRLGGGLDYWGQGTSVTVSS
VL: DIVMTQAAPSVPVTPGESVSISCRSSKRLLHSNGNTYLYWFLQRPGQSPQLLIYRMSNLASGVPDRFSGSGSGTAFTLRISRVEAEDVGVYYCMQHLEYPFTFGGGTKLEIK
notes: tested as chimeric mAb; also called 195H8D10-C
With B2, the binding result with human CCR4 is on record as “no binding (tested: 100 nM (highest concentration tested))”. Moreover, the “IC50, hCCL1-induced migration of BaF3 hCCR8 cells (RLU) [cont'd) C]” value in experiment [7] is 478 pM. For the same molecule, the “IC50, hCCL1-induced beta-arrestin recruitment (RLU), CHO-K1 hCCR8 cells” value in [8] amounted to 3480 pM; in experiment [10], 550 pM. Besides, the “IC50, hCCL1-induced Ca2+ flux (stimulation %), Chem-1 hCCR8 cells [lower graph]” value in experiment [9] came out at 1620 pM. Further, the “IC50, hCCL1-induced Ca2+ flux (stimulation %), Chem-1 hCCR8 cells” value in [2] was found to be 330 pM. Besides, the EC50 in experiment [11] amounted to 74.6 pM; in experiment [12] it was 211 pM; in [5], 41 pM; with cyno CCR8 [13], 370 pM; in the experiment with cyno CCR8 [14], 378 pM.

B3: 195H8D10-C2 (antibody, V domains shown)
VH: B2 VH
VL: B2 VL with G34A
notes: also called 195H8D10 VH with 195H8D10 VL NG-NA
Consider B3, for which the “IC50, hCCL1-induced beta-arrestin recruitment (RLU), CHO-K1 hCCR8 cells” value in experiment [10] was 288 pM. Moreover, the EC50 with cyno CCR8 [14] came out at 517 pM.

B4: 200C9B9-C2 (antibody, V domains shown)
VH: B1 VH with G15K, R19K, E46N, K78E, S80M, S87N, T90I, V95I, L118S
VL: B2 VL with R28S, G34A
notes: also called 200C9B9 VH with 200C9B9 VL NG-NA
As to B4, the results for the EC50 (in [12]; with cyno CCR8 [14]) were 207 pM and 14600 pM, respectively.

B5: 200C9B9 (antibody, V domains shown)
VH: B1 VH with G15K, R19K, E46N, K78E, S80M, S87N, T90I, V95I, L118S
VL: B2 VL with R28S
notes: tested as chimeric mAb; also called 200C9B9-C
For B5, in the experiment with human CCR4, the binding result was “no binding (tested: 100 nM (highest concentration tested))”. Further, the “IC50, hCCL1-induced migration of BaF3 hCCR8 cells (RLU) [cont'd) C]” value in [7] was 798 pM. The “IC50, hCCL1-induced beta-arrestin recruitment (RLU), CHO-K1 hCCR8 cells” value in [8] was 771 pM; in [10], 143 pM; in experiment [1], 3020 pM. For the same molecule, the “IC50, hCCL1-induced Ca2+ flux (stimulation %), Chem-1 hCCR8 cells [lower graph]” value in experiment [9] came to 1890 pM. The “IC50, hCCL1-induced Ca2+ flux (stimulation %), Chem-1 hCCR8 cells” value in experiment [2] is 550 pM. Further, the EC50 in experiment [11] stood at 74.1 pM; in [12], 132 pM; in [5] it was 50 pM; in the experiment with cyno CCR8 [13], 3160 pM; with cyno CCR8 [14] it was 1530 pM.

B6: 4A19 (antibody, V domains shown)
VH: QVQLVQSGAEVKKPGASVKVSCKASGYTFTDSEMHWVRQATGQGLEWMGAIQPETGGTAYNQKFKARVTMTRDTSISTAYMELSSLRSEDTAVYYCARRRRNFDYWGQGTLVTVSS
VL: DIVMTQTPLSLSVTPGQPASISCRSSQSLFHSSGNTYLHWYLQKPGQPPQLLIYKVSNRFSGVPDRFSGSGSGTDFTLKISRVEAEDVGVYYCSQSTHVPFTFGQGTKLEIKR
With B6, the “IC50, hCCL1-induced beta-arrestin recruitment (% stimulation), CHO-K1 hCCR8 cells” value in [3] was found to be 1680 pM. Moreover, the “IC50, hCCL1-induced Ca2+ flux (% stimulation), Chem-1 hCCR8 cells” value in [4] was found to be 12900 pM. For the same molecule, in [6], it took 210 pM to reach a half-maximal effect (EC50).
